Measurements published in patent US20240400715A1 (VIBRANT PHARMA, published 2024).
Residue numbers refer to the chain shown, from its start. “And” between values parts separate entries of the source, which are not always exact repeats. Identical values can stand only once.

B1: Knob+CEA-Fab-Hole (206) (bispecific antibody, human IgG4 S228P, kappa, F234A L235A)
chain: ESKYGPPCPPCPAPEAAGGPSVFLFPPKPKDTLMISRTPEVTCVVVDVSQEDPEVQFNWYVDGVEVHNAKTKPREEQFNSTYRVVSVLTVLHQDWLNGKEYKCKVSNKGLPSSIEKTISKAKGQPREPQVYTLPPCQEEMTKNQVSLWCLVKGFYPSDIAVEWESNGQPENNYKTTPPVLDSDGSFFLYSRLTVDKSRWQEGNVFSCSVMHEALHNHYTQKSLSLSL
heavy: EVQLVESGGGFVQAGESLTLSCTSSTLTFTPYRMAWYRQAPGKQRDLVADISSGDGRTTNYADFAKGRFTISRDNIKNTVFLRMTNLKPEDTAVYYCNTFVSFVGIARSWGQGTQVTVSSGGGGSGGGGSEVKLLESGGGLVQPKGSLKLSCAASGFTFNTYAMNWVRQAPGKGLEWVARIRSKYNNYATYYADSVKDRFTISRDDSQSILYLQMNNLKTEDTAMYYCVRHGNFGNSYVSWFAYWGQGTLVTVSSASTKGPSVFPLAPCSRSTSESTAALGCLVKDYFPEPVTVSWNSGALTSGVHTFPAVLQSSGLYSLSSVVTVPSSSLGTKTYTCNVDHKPSNTKVDKRVESKYGPPCPPCPAPEAAGGPSVFLFPPKPKDTLMISRTPEVTCVVVDVSQEDPEVQFNWYVDGVEVHNAKTKPREEQFNSTYRVVSVLTVLHQDWLNGKEYKCKVSNKGLPSSIEKTISKAKGQPREPQVCTLPPSQEEMTKNQVSLSCAVKGFYPSDIAVEWESNGQPENNYKTTPPVLDSDGSFFLVSRLTVDKSRWQEGNVFSCSVMHEALHNRFTQKSLSLSL
light: QAVVTQESALTTSPGETVTLTCRSSTGAVTTSNYANWVQEKPDHLFTGLIGGTNKRAPGVPARFSGSLIGDKAALTITGAQTEDEAIYFCALWYSNLWVFGGGTKVEIKRTVAAPSVFIFPPSDEQLKSGTASVVCLLNNFYPREAKVQWKVDNALQSGNSQESVTEQDSKDSTYSLSSTLTLSKADYEKHKVYACEVTHQGLSSPVTKSFNRGEC
notes: VHH linked to the VH of the Fab; human IgG4 knob-into-hole Fc
B2: 307 (TA2), configuration of FIG. 1X (bispecific antibody, IgG4)
heavy: QVQLVQSGGGVVQPGRSLRLSCKASGYTFTRYTMHWVRQAPGKGLEWIGYINPSRGYTNYNQKVKDRFTISRDNSKNTAFLQMDSLRPEDTGVYFCARYYDDHYCLDYWGQGTPVTVSSASTKGPSVFPLAPCSRSTSESTAALGCLVKDYFPEPVTVSWNSGALTSGVHTFPAVLQSSGLYSLSSVVTVPSSSLGTKTYTCNVDHKPSNTKVDKRVESKYGPPCPPCPAPEAAGGPSVFLFPPKPKDTLMISRTPEVTCVVVDVSQEDPEVQFNWYVDGVEVHNAKTKPREEQFNSTYRVVSVLTVLHQDWLNGKEYKCKVSNKGLPSSIEKTISKAKGQPREPQVYTLPPCQEEMTKNQVSLWCLVKGFYPSDIAVEWESNGQPENNYKTTPPVLDSDGSFFLYSRLTVDKSRWQEGNVFSCSVMHEALHNHYTQKSLSLSLGGGGSGGGGSEVQLVESGGGFVQAGESLTLSCTSSTLTFTPYRMAWYRQAPGKQRDLVADISSGDGRTTNYADFAKGRFTISRDNIKNTVFLRMTNLKPEDTAVYYCNTFVSFVGIARSWGQGTQVTVSS
chain: B1 chain with Y131C, C136S, W148S, L150A, Y189V, H217R, Y218F
light: DIQMTQSPSSLSASVGDRVTITCSASSSVSYMNWYQQTPGKAPKRWIYDTSKLASGVPSRFSGSGSGTDYTFTISSLQPEDIATYYCQQWSSNPFTFGQGTKLQIT
notes: chains put together from parts; IgG4, kappa; also called CEA-CD3 bispecific antibody 307; not shown: kappa light chain constant domain (CL)
B3: 310 (TA5), configuration of FIG. 1X (bispecific antibody, IgG4)
heavy: DVQLVQSGAEVKKPGASVKVSCKASGYTFTRYTMHWVRQAPGQGLEWIGYINPSRGYTNYADSVKGRFTITTDKSTSTAYMELSSLRSEDTATYYCARYYDDHYCLDYWGQGTTVTVSSASTKGPSVFPLAPCSRSTSESTAALGCLVKDYFPEPVTVSWNSGALTSGVHTFPAVLQSSGLYSLSSVVTVPSSSLGTKTYTCNVDHKPSNTKVDKRVESKYGPPCPPCPAPEAAGGPSVFLFPPKPKDTLMISRTPEVTCVVVDVSQEDPEVQFNWYVDGVEVHNAKTKPREEQFNSTYRVVSVLTVLHQDWLNGKEYKCKVSNKGLPSSIEKTISKAKGQPREPQVYTLPPCQEEMTKNQVSLWCLVKGFYPSDIAVEWESNGQPENNYKTTPPVLDSDGSFFLYSRLTVDKSRWQEGNVFSCSVMHEALHNHYTQKSLSLSLGGGGSGGGGSEVQLVESGGGFVQAGESLTLSCTSSTLTFTPYRMAWYRQAPGKQRDLVADISSGDGRTTNYADFAKGRFTISRDNIKNTVFLRMTNLKPEDTAVYYCNTFVSFVGIARSWGQGTQVTVSS
chain: B1 chain with Y131C, C136S, W148S, L150A, Y189V, H217R, Y218F
light: DIVLTQSPATLSLSPGERATLSCRASQSVSYMNWYQQKPGKAPKRWIYDTSKVASGVPARFSGSGSGTDYSLTINSLEAEDAATYYCQQWSSNPLTFGGGTKVEIK
notes: chains put together from parts; IgG4, kappa; also called CEA-CD3 bispecific antibody 310; not shown: kappa light chain constant domain (CL)
B4: 306 (TA7), configuration of FIG. 1W (bispecific antibody, IgG4)
heavy: EVQLVQSGAEVKKPGASVKVSCKASGFTFTSYYIHWVRQAPGQGLEWIGWIYPENDNTKYNEKFKDRVTITADTSTSTAYLELSSLRSEDTAVYYCARDGYSRYYFDYWGQGTLVTVSSASTKGPSVFPLAPCSRSTSESTAALGCLVKDYFPEPVTVSWNSGALTSGVHTFPAVLQSSGLYSLSSVVTVPSSSLGTKTYTCNVDHKPSNTKVDKRVESKYGPPCPPCPAPEAAGGPSVFLFPPKPKDTLMISRTPEVTCVVVDVSQEDPEVQFNWYVDGVEVHNAKTKPREEQFNSTYRVVSVLTVLHQDWLNGKEYKCKVSNKGLPSSIEKTISKAKGQPREPQVYTLPPCQEEMTKNQVSLWCLVKGFYPSDIAVEWESNGQPENNYKTTPPVLDSDGSFFLYSRLTVDKSRWQEGNVFSCSVMHEALHNHYTQKSLSLSL
chain: EVQLVESGGGFVQAGESLTLSCTSSTLTFTPYRMAWYRQAPGKQRDLVADISSGDGRTTNYADFAKGRFTISRDNIKNTVFLRMTNLKPEDTAVYYCNTFVSFVGIARSWGQGTQVTVSSESKYGPPCPPCPAPEAAGGPSVFLFPPKPKDTLMISRTPEVTCVVVDVSQEDPEVQFNWYVDGVEVHNAKTKPREEQFNSTYRVVSVLTVLHQDWLNGKEYKCKVSNKGLPSSIEKTISKAKGQPREPQVCTLPPSQEEMTKNQVSLSCAVKGFYPSDIAVEWESNGQPENNYKTTPPVLDSDGSFFLVSRLTVDKSRWQEGNVFSCSVMHEALHNRFTQKSLSLSL
light: DIVMTQSPDSLAVSLGERATINCKSSQSLLNSRTRKNYLAWYQQKPGQSPKLLIYWTSTRKSGVPDRFSGSGSGTDFTLTISSLQAEDVAVYYCKQSFILRTFGQGTKVEIK
notes: chains put together from VH/VL, CH1, knob-Fc; IgG4, kappa; also called CEA-CD3 bispecific antibody 306; not shown: kappa light chain constant domain (CL)
B5: 301 (TA2), configuration of FIG. 1W (bispecific antibody, IgG4)
heavy: QVQLVQSGGGVVQPGRSLRLSCKASGYTFTRYTMHWVRQAPGKGLEWIGYINPSRGYTNYNQKVKDRFTISRDNSKNTAFLQMDSLRPEDTGVYFCARYYDDHYCLDYWGQGTPVTVSSASTKGPSVFPLAPCSRSTSESTAALGCLVKDYFPEPVTVSWNSGALTSGVHTFPAVLQSSGLYSLSSVVTVPSSSLGTKTYTCNVDHKPSNTKVDKRVESKYGPPCPPCPAPEAAGGPSVFLFPPKPKDTLMISRTPEVTCVVVDVSQEDPEVQFNWYVDGVEVHNAKTKPREEQFNSTYRVVSVLTVLHQDWLNGKEYKCKVSNKGLPSSIEKTISKAKGQPREPQVYTLPPCQEEMTKNQVSLWCLVKGFYPSDIAVEWESNGQPENNYKTTPPVLDSDGSFFLYSRLTVDKSRWQEGNVFSCSVMHEALHNHYTQKSLSLSL
chain: B4 chain
light: B2 light
notes: IgG4, kappa; not shown: kappa light chain constant domain (CL)
B6: 304 (TA5), configuration of FIG. 1W (bispecific antibody, IgG4)
heavy: DVQLVQSGAEVKKPGASVKVSCKASGYTFTRYTMHWVRQAPGQGLEWIGYINPSRGYTNYADSVKGRFTITTDKSTSTAYMELSSLRSEDTATYYCARYYDDHYCLDYWGQGTTVTVSSASTKGPSVFPLAPCSRSTSESTAALGCLVKDYFPEPVTVSWNSGALTSGVHTFPAVLQSSGLYSLSSVVTVPSSSLGTKTYTCNVDHKPSNTKVDKRVESKYGPPCPPCPAPEAAGGPSVFLFPPKPKDTLMISRTPEVTCVVVDVSQEDPEVQFNWYVDGVEVHNAKTKPREEQFNSTYRVVSVLTVLHQDWLNGKEYKCKVSNKGLPSSIEKTISKAKGQPREPQVYTLPPCQEEMTKNQVSLWCLVKGFYPSDIAVEWESNGQPENNYKTTPPVLDSDGSFFLYSRLTVDKSRWQEGNVFSCSVMHEALHNHYTQKSLSLSL
chain: B4 chain
light: B3 light
notes: chains put together from VH/VL, CH1, knob-Fc; IgG4, kappa; not shown: kappa light chain constant domain (CL)

Biological target: T1, human CD3 on Jurkat cells (human, UniProt P07766 23-207; P04234 22-171; P09693 23-182)
T1 construct: whole, on cells; CD3 complex as on Jurkat (Clone E6-1) cells; also called CD3 expressing cells (Jurkat)
Experiment: FACS, Jurkat cells;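 also: flow cytometric binding of bispecific antibodies to Jurkat T cells, threefold serial dilutions incubated half an hour in the cold, EC50 taken from the fitted binding curve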
Experimental: The binding of the bispecific antibodies was tested on the CA expressing human lung adenocarcinoma cell line (H1573) and the CD3 expressing immortalized T lymphocyte line (Jurkat). The steps are as follows: the cells were harvested, counted, and resuspended in FACS buffer (PBS containing 0.1% BSA) at 2×10⁶ cells/ml. 100 μl of cell suspension was incubated in a V-bottom 96-well plate at 4° C. with 3-fold serial dilutions of bispecific antibodies (20 μg/ml-0.009 μg/ml) for 30 minutes; washed twice with pre-cooled FACS buffer. […] GraphPadPrism was used to obtain the binding curve.

EC50	Binder
8.29 nM and 1.08 µg/mL	B1
2.86 µg/mL and 22 nM	B2
0.181 µg/mL and 1.39 nM	B3
0.0129 µg/mL and 0.1 nM	B4
0.282 µg/mL and 2.17 nM	B5
0.101 µg/mL and 0.77 nM	B6

Biological target: T2, human CD3ε/δ (ACRO systems, CDD-H52W1) (human, UniProt P07766 23-126; P04234 22-105)
T2 construct: Bought protein; also called human CD3ϵ/CD3δ; human CD3 epsilon/delta antigen
Experiment: BLI, antibody captured, antigen in solution;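 also: bispecific antibodies captured on AHIC biosensors to a 1.5 nm loading signal, in PBST with 0.02% detergent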
Experimental: The bispecific antibodies were diluted to 5 ag/ml, and 1.5 nm protein was coupled to the surface of the AHIC sensor chip through 0.02% PBST.

Kd [nM]	koff [s⁻¹]	kon [M⁻¹ s⁻¹]	Binder
3.08	0.000552	180000	B1
1.4	0.000419	278000	B4
